Tests used:
Assay in all cases: SDS-PAGE without boiling
[1] = biological target: FITC-labeled cholera toxin B (sortase-labeled GGG-CTB) (UniProt P01556)
[2] = biological target: cholera toxin B with an N-terminal triglycine extension (UniProt P01556)
[3] = biological target: the molecule itself

Molecule: FITC-labeled cholera toxin B (sortase-labeled GGG-CTB) (from UniProt P01556 22-124) (natural protein)
- stoichiometry N [1]: 5

Molecule: cholera toxin B with an N-terminal triglycine extension (from UniProt P01556 22-124) (natural protein)
- stoichiometry N [2]: 5

B1: cholera toxin B-subunit (natural protein)
chain: TPQNITDLCAEYHNTQIYTLNDKIFSYTESLAGKREMAIITFKNGAIFQVEVPGSQHIDSQKKAIERMKDTLRIAYLTEAKVEKLCVWNNKTPHAIAAISMAN
notes: also called B5; B5 pentamer
- stoichiometry N [3]: 5
